The values below come from paper doi:10.1101/2025.05.07.652675.

“And” between values parts separate entries of the source, which are not always exact repeats. Equal entries are not always repeated.

The experiment concerns the target ZapC^F30D and ZapC^K94D. Kind of experiment: BLI. (In BLI a coated tip is dipped into the sample, and binding shifts an interference pattern.)

Sequence of FtsZ (wild type, untagged) (P0A9A6 whole entry): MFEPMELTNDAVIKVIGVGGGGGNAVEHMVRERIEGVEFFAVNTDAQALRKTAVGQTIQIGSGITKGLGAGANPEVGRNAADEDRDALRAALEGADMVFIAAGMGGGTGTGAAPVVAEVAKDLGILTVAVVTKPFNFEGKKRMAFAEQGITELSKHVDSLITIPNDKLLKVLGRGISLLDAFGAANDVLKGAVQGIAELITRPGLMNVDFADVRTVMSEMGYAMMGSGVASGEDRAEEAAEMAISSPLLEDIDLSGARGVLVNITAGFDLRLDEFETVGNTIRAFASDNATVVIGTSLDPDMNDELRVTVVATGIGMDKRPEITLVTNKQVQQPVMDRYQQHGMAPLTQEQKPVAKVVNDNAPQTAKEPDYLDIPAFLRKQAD

Take “FtsZ (wild type, untagged) (from UniProt P0A9A6 1-383) (natural protein)”: the binding affinity relative to wild-type ZapC (times lower) is 5 times and 7 times.
